Measured values as given in patent US20060239990A1, “Protein Arginine N-Methyltransferase 2 (PRMT-2)” (priority 2003, published 2006).

Columns and labels:
NF-κB = NF-κB luciferase reporter assay in 293T cells; assay type: cell-based, human; conditions: for NF-κB activity: 1 μg expression construct, 100 ng 5 κB luciferase reporter; for IKK2- and p65-induced NF-κB activity: κB luciferase reporter, 48 hrs
Method: Cell culture, transfection, and reporter gene assays. The E1A-transformed, human kidney cell line, 293, and NIH-3T3 cells were maintained in Dulbecco's Modified Eagle Medium (DMEM) supplemented with 10% fetal calf serum and penicillin-streptomycin at 37° C. in 5% carbon dioxide in tissue culture grade Petri dishes. PRMT-2−/− mouse embryo fibroblasts (MEFs) and wild type MEFs were prepared from day 13.5 embryos and maintained in DMEM supplemented with 10% fetal calf serum. MEFs at passage 4 were used in this experiment. Lipofectamine Plus™ reagent (Boehringer Mannheim) was used to transfect both 293 and NIH-3T3 cells according to directions from the manufacturer. […] TNF-α stimulation of cells was done using recombinant TNF-α (200 U/ml) for 12 hours. […] CAT assays were performed essentially as described in Leung, K. & Nabel, G. J. Nature 333, 776-778 (1988). To analyze the κB-reporter activity in MEFs, cells were transfected with the reporter (2×kB-Luc) and PRL-TK vector (Promega) using FuGENE6 transfection reagent (Roche). Luciferase activity was analyzed by Dual-Luciferase Reporter Assay System (Promega).
To map the domains responsible for inhibition of HIV transcription, truncation and point mutations were made in PRMT2 (FIG. 1D) and co-transfected with an NF-κB reporter in 293T cells. PRMT2-A represents an alternatively spliced form of PRMT2 found in the expressed sequence tag (EST) database. This isoform contains the first 218 amino acids of PRMT2 and differs from full length PRMT2 by the absence of the less conserved COOH-terminal domain. PRMT2-N was generated by introducing a stop codon after amino acid 95 before the putative Ado-Met domain of PRMT2. To analyze the role of the Ado-Met domain further, another mutant, PRMT2-4A, was prepared in which 141ILDV144 (SEQ ID NO:5) in this region were altered to four consecutive alanines to compare the effects of point mutations in this highly conserved region.
The mechanism and site of action of PRMT2 in the NF-κB signaling pathway was further defined by co-transfection of PRMT2 and its mutants with different regulators in this pathway with an NF-κB reporter in 293T cells (FIG. 2D).

[1] = tested on: HIV-1, HIV-2, HTLV-1, or HTLV-2 reporter plasmids; assay: CAT reporter assay with viral reporter plasmids in 293 cells; assay type: cell-based, human
Method: Cell culture, transfection, and reporter gene assays. The E1A-transformed, human kidney cell line, 293, and NIH-3T3 cells were maintained in Dulbecco's Modified Eagle Medium (DMEM) supplemented with 10% fetal calf serum and penicillin-streptomycin at 37° C. in 5% carbon dioxide in tissue culture grade Petri dishes. PRMT-2−/− mouse embryo fibroblasts (MEFs) and wild type MEFs were prepared from day 13.5 embryos and maintained in DMEM supplemented with 10% fetal calf serum. MEFs at passage 4 were used in this experiment. Lipofectamine Plus™ reagent (Boehringer Mannheim) was used to transfect both 293 and NIH-3T3 cells according to directions from the manufacturer. […] TNF-α stimulation of cells was done using recombinant TNF-α (200 U/ml) for 12 hours. Transfected cells were harvested at 36 hours, and CAT activity was assayed on 10 to 100 μg of protein from whole cell extracts. CAT assays were performed essentially as described in Leung, K. & Nabel, G. J. Nature 333, 776-778 (1988). To analyze the κB-reporter activity in MEFs, cells were transfected with the reporter (2×kB-Luc) and PRL-TK vector (Promega) using FuGENE6 transfection reagent (Roche). Luciferase activity was analyzed by Dual-Luciferase Reporter Assay System (Promega). […]

IκB-α = assay: Co-immunoprecipitation with endogenous IκB-α in 293 cells; assay type: binding, human; conditions: HA-tagged constructs in 293 cells
Chain of IκB-α (P25963 whole entry, the tested form may be a part): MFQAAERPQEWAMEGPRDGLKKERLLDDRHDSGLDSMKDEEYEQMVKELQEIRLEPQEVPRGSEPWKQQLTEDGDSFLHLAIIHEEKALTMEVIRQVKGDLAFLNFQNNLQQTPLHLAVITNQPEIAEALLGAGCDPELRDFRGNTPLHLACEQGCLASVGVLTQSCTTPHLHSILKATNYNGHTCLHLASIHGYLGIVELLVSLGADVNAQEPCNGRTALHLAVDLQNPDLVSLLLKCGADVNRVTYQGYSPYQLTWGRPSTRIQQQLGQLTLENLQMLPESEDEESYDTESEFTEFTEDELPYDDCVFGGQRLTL
Description: A polyclonal antibody to recombinant PRMT2 was used to examine the association between endogenous PRMT2 and IκB-α in vivo. […] The domain of IκB-α required for association with PRMT2 was mapped using in vivo immunoprecipitation assays where HA-tagged PRMT2 was coexpressed with truncation mutants of His-tagged IκB-α (FIG. 5B) in 293 cells. The ankyrin domain was both necessary and sufficient for this association (FIG. 5D, lanes 1 and 2). The domain of PRMT2 that interacted with endogenous IκB-α was mapped by immunoprecipitation following expression HA-tagged PRMT2 truncation mutants (FIG. 5C). […] When the ratios of PRMT2 or PRMT2-A binding to IκB-α were compared, both interacted with IκB-α with similar affinity.

STAT3 = STAT3 arginine methylation in transfected HEK293 cells; assay type: cell-based; conditions: 24 hr after transfection, α-metR immunoblot
Method: Vascular smooth muscle cells (VSMC) were prepared from the thoracic aorta of 12-week-old-male wild-type and PRMT-2^−/− mice by the explant method. Mouse embryo fibroblasts (MEFs) were prepared from 13.5-day wild-type and PRMT-2^−/− embryos. VSMCs and MEFs were cultured in Dulbecco's modified Eagle's medium (DMEM) containing 10% fetal calf serum (FCS) at 37° C. in a humidified atmosphere of 95% air-5% CO2. The integrity of PRMT-2 expression in the established VSMCs and MEFs lines was confirmed by Western and immunofluorescence analysis (data not shown). Quiescent VSMC (3-5th passages) that had been serum-starved for 48 hr were used in the following experiments. HEK293 cells were also grown in DMEM plus 10% FCS and were transiently transfected with FuGENE6 transfection reagent (Roche Applied Science, Indianapolis, Ind.) according to the manufacture's protocol. For each transfection, 2 μg of expression construct for mouse PRMT-2 and 8 μg for mouse STAT3 were used. After 24-48 hr of transfection, cells were used for the following experiments.
Immunoprecipitation of STAT3 was performed as follows. […]

p50/p65 complex = assay: NF-κB DNA binding assay (EMSA); assay type: biochemical, human; conditions: 293 cells cotransfected with p50 and p65 expression vectors
Method: DNA binding assay. Electrophoretic mobility shift assays (EMSAs) were conducted on 10 μg of nuclear extract protein from 293 cells transiently transfected with pRSV p50/p65 expression constructs and pVR1012 PRMT-2-A/PRMT-2-N expression constructs. A modified Dignam procedure (Dignam et al. Nucleic Acids Res. 11, 1475-1489 (1983)) was used to prepare nuclear extracts from 293 cells. Perkins, N. D. et al. Science 275, 523-527 (1997). NF-KB DNA binding was assayed using a double-stranded 32P-labeled κB probe (Geneka Biotechnology). DNA binding assays were performed as described previously. Perkins et al. Science 275, 523-527 (1997). Supershifting was done using NF-κB p65 (C-20) and NF-κB p50 (H-119) (Santa Cruz). GST-PRMT-2-A fusion proteins were expressed in BL21 (DE3) cells and extracts were prepared as described previously. Smith, D. B. & Johnson, K. S. Gene 67, 31-40 (1988).

| Molecule | NF-κB activity (NF-κB) | IKK2- and p65-induced NF-κB activity (NF-κB) | expression from HIV-2 or HTLV reporter plasmids [1] | HIV-1 CAT expression ([1]; HIV-1 reporter plasmid) | association with endogenous IκB-α (IκB-α) | Stat3 methylation (STAT3) | NF-κB DNA binding in nuclear extracts of transfected cells (p50/p65 complex) |
| --- | --- | --- | --- | --- | --- | --- | --- |
| PRMT2-A: alternatively spliced form containing the first 218 amino acids of PRMT-2, SEQ ID NO:3 (protein, A synthetic PRMT-2-A mutant polypeptide) MATSGDCPRSESQGEEPAECSEAGLLQEGVQPEEFVAIADYAATDETQLSFLRGEKILILRQTTADWWWGERAGCCGYIPANHVGKHVDEYDPEDTWQDEEYFGSYGTLKLHLEMLADQPRTTKYHSVILQNKESLTDKVILDVGCGTGIISLFCAHYARPRAVYAVEASEMAQHTGQLVLQNGFADIITVYQQKVEDVVLPEKVDVLVSEWMGTCLL | inhibited NF-κB activity | inhibited both IKK2- and p65-induced NF-κB activity | No significant reduction | substantially inhibited | interacted |  |  |
| mutant PRMT-2: mutated PRMT-2 lacking functional Ado-Met domain (the PRMT-2-4A mutant according to b407) (protein) MATSGDCPRSESQGEEPAECSEAGLLQEGVQPEEFVAIADYAATDETQLSFLRGEKILILRQTTADWWWGERAGCCGYIPANHVGKHVDEYDPEDTWQDEEYFGSYGTLKLHLEMLADQPRTTKYHSVILQNKESLTDKVAAAAGCGTGIISLFCAHYARPRAVYAVEASEMAQHTGQLVLQNGFADIITVYQQKVEDVVLPEKVDVLVSEWMGTCLLFEFMIESILYARDAWLKEDGVIWPTMAALHLVPCSADKDYRSKVLFWDNAYEFNLSALKSLAVKEFFSKPKYNHILKPEDCLSEPCTILQLDMRTVQISDLETLRGELRFDIRKAGTLHGFTAWFSVHFQSLQEGQPPQVLSTGPFHPTTHWKQTLFMMDDPVPVHTGDVVTGSVVLQRNPVWRRHMSVALSWAVTSRQDPTSQKVGEKVFPIWR |  |  |  |  |  | failed to evoke STAT3 methylation |  |
| PRMT2-N: generated by introducing a stop codon after amino acid 95 of PRMT-2, SEQ ID NO:4 (protein, A synthetic PRMT-2-N polypeptide) MATSGDCPRSESQGEEPAECSEAGLLQEGVQPEEFVAIADYAATDETQLSFLRGEKILILRQTTADWWWGERAGCCGYIPANHVGKHVDEYDPED | did not | unable to block this effect |  |  | did not associate |  | did not affect NF-κB DNA binding |
